B1: HpaA-neuraminyl-lactose-hemagglutinin precursor (protein)
chain: MKKGSLAIVLGSLLASGAFYTALADGMPAKQQHNNTGESVELHFHYPIKGKQEPKNSHLVVLIEPKIEINKVIPESYQKEFEKSLFLQLSSFLERKGYSVSQFKDASEIPQDIKEKALLVLRMDGNVAILEDIVEESDALSEEKVIDMSSGYLNLNFVEPKSEDIIHSFGIDVSKIKAVIERVELRRTNSGGFVPKTFVHRIKETDHDQAIRKIMNQAYHKVMVHITKELSKKHMEHYEKVSSEMKKRK
notes: 32 kd H. pylori antigen band in whole cell lysate, identified as HpaA
B2: RPL7/L12 50S ribosomal protein L7/L12 (protein)
chain: MNISVNPYLMAVVFVVFVLLLWAMNVWVYRPLLAFMDNRQAEIKDSLAKIKTDNAQSVEIGHQIEALLKEAAEKRREIIAEAIQKATESYDAVIKQKENELNQEFEAFAKQLQNEKQALKEQLQAQMPVFEDELNKRVAMGLGS
notes: 15 kd H. pylori antigen band in whole cell lysate, identified as RPL7/L12
B3: Omp18-peptido-glycan associated lipoprotein precursor (protein)
chain: MKRSSVFSFLVAFLLVAGCSHKMDNKTVAGDVSAKTVQTAPVTTEPAPEKEEPKQEPAPVVEEKPAVESGTIIASIYFDFDKYEIKESDQETLDEIVQKAKENHMQVLLEGNTDEFGSSEYNQALGVKRTLSVKNALVIKGVEKDMIKTISFGETKPKCAQKTRECYKENRRVDVKLMK
notes: 30 kd H. pylori antigen band in whole cell lysate, identified as Omp18
B4: HP0596 a hypothetical protein (protein)
chain: MLEKSFLKSKQLFLCGLGVLMLQACTCPNTSQRNSFLQDVPYWMLQNRSEYITQGVDSSHIVDGKKTEEIEKIATKRATIRVAQNIVHKLKEAYLSKTNRIKQKITNEMFIQMTQPIYDSLMNVDRLGIYINPNNEEVFALVRARGFDKDALSEGLHKMSLDNQAVSILVAKVEEIFKDSVNYGDVKVPIAM
notes: 23 kd H. pylori antigen band in whole cell lysate, identified as HP0596

Legend:
[1] = system: specific serum IgG antibodies in sera from patients diagnosed with a H. pylori infection; assay: Quantitative Western-blot analysis (integrated optical density) of patient sera on H. pylori whole cell lysate antigens; format: binding, human; conditions: for average titer of specific antibodies / reduction of average titer: average of all strains (FIG. 4)
[2] = system: sera from H. pylori infected patients; assay: Immunoblot analysis of whole cell lysates with sera from H. pylori infected patients; format: binding, human; conditions: one serum of an infected patient (HS#0 12, table 1)
Procedure: The protein content of the bacterial lysates was determined by the method according to Lowry (Lowry et al., 1951) with bovine serum albumin as a standard. The lysates were dried in a speedVac concentrator. Afterwards the pellets were suspended in gel sample buffer (4% SDS, 12% glycerin, 4% β-mercaptoethanol, 0.01% Serva Blue G250 in 50 mM Tris/HCl pH 6.8) and boiled for 10 min. H. pylori and C. jejuni lysates were separated on 1.0 or 1.5 mm 7.5-16.5% SDS-tricine gradient gels (Schaegger and v. Jagow, 1987). Therefore a 7.5% and a 16.5% acrylamide solution for the separating gel and a 4% acrylamide solution for the stacking gel were prepared according to the scheme presented in table 3. Using a gradient-mixer the gel was poured slowly, but with continuous flow between the glass plates of the gel-sandwich. The separating gel was overlaid with deonized H2O and allowed to polymerize for 1 hr. Afterwards the water was removed, APS and TEMED was added to the stacking gel solution that was poured on top of the separating gel. A comb with the appropriate number of sample pockets was inserted and removed after polymerisation for 1 hr. The gel-sandwich was placed in an electrophoresis chamber half filled with bottom running buffer (0.2 M Tris-HCI, pH 8.9). […] The protein pattern after electrophoresis was determined by Silver staining (Heukeshoven, 1985) or Coomassie blue staining. […]

[3] = antigens from Hp02 (FIG. 3), sera 3 months post therapy
[4] = antigens from Hp02 (FIG. 3), sera 5 months post therapy
[5] = antigens from Hp02 (FIG. 3), sera before therapy, set as 100%
[6] = antigens from Hp08 (FIG. 2), sera 3 months post therapy
[7] = antigens from Hp08 (FIG. 2), sera 5 months post therapy
[8] = antigens from Hp08 (FIG. 2), sera before therapy, set as 100%
[9] = antigens from Hp504, first experiment (FIG. 1A), sera 3 months post therapy
[10] = antigens from Hp504, first experiment (FIG. 1A), sera 5 months post therapy
[11] = antigens from Hp504, first experiment (FIG. 1A), sera of 9 patients before therapy, set as 100%
[12] = antigens from Hp504, second experiment (FIG. 1B), sera 3 months post therapy
[13] = antigens from Hp504, second experiment (FIG. 1B), sera 5 months post therapy
[14] = antigens from Hp504, second experiment (FIG. 1B), sera before therapy, set as 100%
[15] = 3 months after eradication treatment
[16] = 5 months after end of treatment

Molecule	% IOD [1, 3]	% IOD [1, 4]	% IOD [1, 5] [%]	% IOD [1, 6]	% IOD [1, 7]	% IOD [1, 8] [%]	% IOD [1, 9]	% IOD [1, 10]	% IOD [1, 11] [%]	% IOD [1, 12]	% IOD [1, 13]	% IOD [1, 14] [%]	average titer of specific antibodies [1, 15] [%]	reduction of average titer [1, 15] [%]	average titer of specific antibodies [1, 16] [%]	reduction of average titer [1, 16] [%]	reaction with serum HS#0 12 [2]
B1	32.30 +/− 13.97%	8.70 +/− 3.2%	100	48.11 +/− 8.15%	21.06 +/− 8.01%	100	41.61 +/− 9.25%	15.15 +/− 4.20%	100	32.15%	27.2%	100	38.5	61.5	18.03	81.97	
B2	36.29 +/− 14.99%	11.39 +/− 4.27%	100	28.60 +/− 13.85%	9.96 +/− 4.99%	100	37.86 +/− 8.98%	15.37 +/− 6.68%	100	46.17 +/− 16.87%	19.77 +/− 11.11%	100	31.61	68.39	14.12	85.88	did not react
B3	50.71 +/− 11.48%	21.56 +/− 6.44%	100	62.53 +/− 10.32%	40.77 +/− 4.45%	100	32.08 +/− 6.48%	20.71 +/− 12.72%	100	53.58%	41.28%	100	49.73	50.27	31.08	68.92	
B4	35.86 +/− 11.88%	13.51 +/− 5.02%	100	23.05 +/− 7.53%	11.36 +/− 4.45%	100	33.88 +/− 10.59%	23.81 +/− 7.83%	100	52.37 +/− 12.72%	34.77 +/− 9.61%	100	36.29	63.71	28.87	79.13	

Source: US20030166027A1, “Compositions, test kits and methods for detecting helicobacter pylori” (priority 2002, published 2003)
